Substitutions are numbered along the chain they refer to. Numbers in names are those of the source. Where a SMILES comes first, the peptide text is derived from it. Where no end group is shown, it is not given here.

T1: Nrd1p CID (Saccharomyces cerevisiae, UniProt P53617)
T1 construct: the CID (residues 1–153) of Nrd1p; His6 (C); made in house
T1 sequence (P53617 1-153): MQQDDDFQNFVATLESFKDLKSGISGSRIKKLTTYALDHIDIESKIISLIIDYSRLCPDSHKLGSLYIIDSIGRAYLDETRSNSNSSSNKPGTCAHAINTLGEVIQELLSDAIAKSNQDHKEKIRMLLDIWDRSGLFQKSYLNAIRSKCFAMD

T2: Nrd1p CID (residues 1-153), P53617
T2 chain: T1 sequence (P53617 1-153)

T3: FAM-labeled Trf4p NIM peptide
T3 chain: T1 sequence (P53617 1-153) with S25R

T4: FAM-labeled Trf4p NIM peptide
T4 chain: DDDEDGYNPYTL

T5: NIM N580A (Saccharomyces cerevisiae, not fully specified (N-terminus); also: FAM label (position not given here))
T5 chain: DDDEDGYAPYTL

T6: NIM D577R (Saccharomyces cerevisiae, not fully specified (N-terminus); also: FAM label (position not given here))
T6 chain: DDDERGYNPYTL

T7: FAM-labeled Trf4p NIM peptide
T7 chain: T1 sequence (P53617 1-153) with K21D

T8: Nrd1p CID (residues 1-153) (S. cerevisiae, UniProt P53617 1-153)
T8 construct: also called Nrd1 CID
T8 sequence (looked up): T1 sequence (P53617 1-153)

B1: Nrd1p CID (residues 1-153), P53617 L20D (protein)
chain: T1 sequence (P53617 1-153) with L20D
B2: Nrd1p CID (residues 1-153) (domain or fragment)
chain: T1 sequence (P53617 1-153)
B3: Nrd1p CID Ile130Lys (domain or fragment)
chain: T1 sequence (P53617 1-153) with I130K
B4: Nrd1p CID (residues 1-153), P53617 I130K (protein)
chain: T1 sequence (P53617 1-153) with I130K
B5: Nrd1p CID (residues 1-153), P53617 R28D (protein)
chain: T1 sequence (P53617 1-153) with R28D
B6: Nrd1p CID (residues 1-153), P53617 D70A (protein)
chain: T1 sequence (P53617 1-153) with D70A
B7: 12 aa NIM peptide of Trf4p (peptide)
peptide: DDDEDGYNPYTL
notes: printed in three-letter code; also called Trf4p NIM; unlabeled NIM

The target in assay [1] is Nrd1p CID (residues 1-153) (UniProt P53617). In words: fluorescence anisotropy (FA) equilibrium binding.
The next assay addresses T1, Nrd1p CID. Kind of assay: Equilibrium binding of FAM-labelled peptides to Nrd1p CID by fluorescence anisotropy (FA). Also noted: species or system S. cerevisiae.
For assay [2], the target named is T2, Nrd1p CID (residues 1-153), P53617. Kind of assay: fluorescence anisotropy (FA) equilibrium binding. As to conditions: chain shown with the change. Background: In fluorescence polarisation assays a small probe gives low polarisation when free and higher when bound to something large.
Assay [3] addresses T3, FAM-labeled Trf4p NIM peptide. In words: fluorescence anisotropy (FA) equilibrium binding. As to conditions: chain shown with the change.
Assay [4] concerns the target B2. Kind of assay: FP.
Assay [5] concerns the target T4, FAM-labeled Trf4p NIM peptide. In words: fluorescence anisotropy (FA) equilibrium binding. To be noted: chain shown with the change.
The target of assay [6] is FAM-labeled Trf4p NIM peptide (S. cerevisiae). In words: fluorescence polarisation; fluorescence anisotropy; fluorescently labeled peptide titrated with Nrd1p CID; equilibrium binding in solution.
In assay [7] the target is FAM-labeled Ser5P CTD peptide (S. cerevisiae). The description is as above.
Assay [8] shares this target. Kind of assay: fluorescence polarisation; fluorescence anisotropy competition; preformed complex of 10 nM FAM-labeled Ser5P CTD and Nrd1p CID (120 μM) titrated with unlabeled Trf4p NIM peptide; KD calculated using 1.08 μM for CID-NIM.
The target in another assay is T5, NIM N580A. In words: FP.
The target of the next assay is T6, NIM D577R. In words: FP.
In assay [9] the target is T7, FAM-labeled Trf4p NIM peptide. In words: fluorescence anisotropy (FA) equilibrium binding. To be noted: chain shown with the change.
Assay [10] has as its target T8, Nrd1p CID (residues 1-153). Kind of assay: NMR solution structure; reconstituted complex of 15N,13C-labeled Nrd1p CID and unlabeled NIM peptide; 50 mM sodium phosphate pH 8.0, 100 mM NaCl, 20°C. To be noted: both partners purified.

A word on the Kd: it is the concentration at which binding is half-saturated. As for FAM-labeled Trf4p NIM peptide Y579A, the Kd in [1] came to 283 µM. At Nrd1p CID, `CC(C)C[C@H](NC(=O)[C@@H](NC(=O)[C@H](Cc1ccc(O)cc1)NC(=O)[C@@H]1CCCN1C(=O)[C@H](CC(N)=O)NC(=O)[C@H](Cc1ccc(O)cc1)NC(=O)CNC(=O)[C@H](CC(=O)O)NC(=O)[C@H](CCC(=O)O)NC(=O)[C@H](CC(=O)O)NC(=O)[C@H](CC(=O)O)NC(=O)[C@H](CC(=O)O)NC(=O)c1ccc2c(c1)C(=O)OC21c2ccc(O)cc2Oc2cc(O)ccc21)[C@@H](C)O)C(=O)O` [Trf4p NIM] (HELM PEPTIDE1{[O=C1OC2(c3ccc(O)cc3Oc3cc(O)ccc32)c2ccc(C(=O)[*:2])cc21].D.D.D.E.D.G.Y.N.P.Y.T.L}$$$$V2.0; C-terminus assumed) registered a Kd of 1.09 ± 0.01 µM. At Nrd1p CID, `CC(C)C[C@H](NC(=O)[C@@H](NC(=O)[C@H](Cc1ccc(O)cc1)NC(=O)[C@@H]1CCCN1C(=O)[C@H](C)NC(=O)[C@H](Cc1ccc(O)cc1)NC(=O)CNC(=O)[C@H](CC(=O)O)NC(=O)[C@H](CCC(=O)O)NC(=O)[C@H](CC(=O)O)NC(=O)[C@H](CC(=O)O)NC(=O)[C@H](CC(=O)O)NC(=O)c1ccc2c(c1)C(=O)OC21c2ccc(O)cc2Oc2cc(O)ccc21)[C@@H](C)O)C(=O)O` [N580A] (HELM PEPTIDE1{[O=C1OC2(c3ccc(O)cc3Oc3cc(O)ccc32)c2ccc(C(=O)[*:2])cc21].D.D.D.E.D.G.Y.A.P.Y.T.L}$$$$V2.0) showed a Kd of 4.3 ± 0.1 µM. Regarding `CC(C)C[C@H](NC(=O)[C@@H](NC(=O)[C@H](Cc1ccc(O)cc1)NC(=O)[C@@H]1CCCN1C(=O)[C@H](CC(N)=O)NC(=O)[C@H](Cc1ccc(O)cc1)NC(=O)CNC(=O)[C@H](CCCNC(=N)N)NC(=O)[C@H](CCC(=O)O)NC(=O)[C@H](CC(=O)O)NC(=O)[C@H](CC(=O)O)NC(=O)[C@H](CC(=O)O)NC(=O)c1ccc2c(c1)C(=O)OC21c2ccc(O)cc2Oc2cc(O)ccc21)[C@@H](C)O)C(=O)O` [D577R] (HELM PEPTIDE1{[O=C1OC2(c3ccc(O)cc3Oc3cc(O)ccc32)c2ccc(C(=O)[*:2])cc21].D.D.D.E.R.G.Y.N.P.Y.T.L}$$$$V2.0), the Kd at Nrd1p CID turned out to be 24.2 ± 0.6 µM. Same read-out and setting: for `CC(C)C[C@H](NC(=O)[C@@H](NC(=O)[C@H](Cc1ccc(O)cc1)NC(=O)[C@@H]1CCCN1C(=O)[C@H](CC(N)=O)NC(=O)[C@H](Cc1ccc(O)cc1)NC(=O)CNC(=O)[C@H](CC(=O)O)NC(=O)[C@H](CCC(=O)O)NC(=O)[C@H](CCCNC(=N)N)NC(=O)[C@H](CC(=O)O)NC(=O)[C@H](CC(=O)O)NC(=O)c1ccc2c(c1)C(=O)OC21c2ccc(O)cc2Oc2cc(O)ccc21)[C@@H](C)O)C(=O)O` [D575R] (HELM PEPTIDE1{[O=C1OC2(c3ccc(O)cc3Oc3cc(O)ccc32)c2ccc(C(=O)[*:2])cc21].D.D.R.E.D.G.Y.N.P.Y.T.L}$$$$V2.0) the value was 7.7 ± 0.2 µM. DDDADGYNPYTL [FAM-labeled Trf4p NIM peptide E576A]: the Kd in assay [2] was 3.2 µM. Take DDDEDGYNPYTL [Nrd1p CID (residues 1-153), P53617 S25R]: the Kd in assay [3] came to 146 µM. In turn, DDDRDGYNPYTL [Trf4p NIM peptide with Glu576 changed to arginine] yielded a Kd in assay [4] of 4.6 µM. B1 came in with a dissociation constant Kd in assay [5] of 44.9 µM. As for B2, the Kd in [6] was 1.08 µM; in assay [7] it was 130 µM; in assay [8], 120 µM; with NIM N580A, 4.3 µM; with NIM D577R, 24.2 µM. As for B3, the fold decrease in binding affinity against wild-type Nrd1p CID in [6] is 20 fold. In assay [5], B4 registered a Kd of 20.7 µM. B5 yielded a Kd in assay [5] of 96.9 µM. Still for that read-out and setting: for B6 the value was 39.8 µM. The molecule DDDEDGANPYTL (not fully specified (N-terminus); also: FAM label (position not given here)) [Trf4p NIM peptide with alanine at Tyr579] showed a Kd in assay [4] of 263 µM. In turn, DDDEDGYNPYTL [Nrd1p CID (residues 1-153), P53617 K21D] yielded a Kd in assay [9] of 35.4 µM. Consider B7, for which, in [10], the binding result was “binds”. Regarding DDDRDGYNPYTL [FAM-labeled Trf4p NIM peptide E576R], the Kd in [2] is 4.8 µM.
